Biological target: His-GST-NR4A1 (Mus musculus, UniProt P12813 1-601)
Assay: EMSA; glutaraldehyde 0.2% added after binding; 10 mM HEPES pH 7.6, 50 mM KCl, 1 mM EDTA, 0.05% Triton X-100, 5% glycerol, 1 mM DTT, 40 U/ml RNasin; REMSA: 2 nM probe, room temperature 30 min; pull-down: 50 pmol probe, 250 ug extract, 4 C 3 h
Conditions: protein: recombinant; tags: His-GST; label: 5' biotin; single strand

His-GST-NR4A1, sequence (P12813 whole entry): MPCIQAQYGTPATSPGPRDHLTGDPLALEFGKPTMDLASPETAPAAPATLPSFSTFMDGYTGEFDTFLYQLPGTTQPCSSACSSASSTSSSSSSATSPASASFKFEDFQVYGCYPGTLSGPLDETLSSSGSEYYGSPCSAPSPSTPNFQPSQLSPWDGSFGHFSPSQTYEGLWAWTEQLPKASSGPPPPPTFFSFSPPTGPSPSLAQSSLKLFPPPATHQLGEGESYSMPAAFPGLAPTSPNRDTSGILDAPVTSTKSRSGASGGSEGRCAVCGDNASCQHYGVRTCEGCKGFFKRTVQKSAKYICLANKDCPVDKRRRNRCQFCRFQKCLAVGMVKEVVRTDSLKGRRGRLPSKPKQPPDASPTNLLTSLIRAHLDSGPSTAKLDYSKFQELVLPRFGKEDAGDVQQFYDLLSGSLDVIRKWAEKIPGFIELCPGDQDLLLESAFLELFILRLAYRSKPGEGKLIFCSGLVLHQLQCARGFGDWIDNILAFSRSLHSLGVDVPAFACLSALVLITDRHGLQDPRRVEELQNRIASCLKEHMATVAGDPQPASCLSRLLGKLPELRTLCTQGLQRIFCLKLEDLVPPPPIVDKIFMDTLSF

CGUCUCGGACUCGGACUGCU (ssRNA, m6A at positions 9 and 15 (as printed: CGUCUCGG(m6A)CUCGG(m6A)CUGCU)) [GGACU probe, m6A]: binds.

— article PMC10365314, “Noncanonical contribution of microglial transcription factor NR4A1 to post-stroke recovery through TNF mRNA destabilization”
